Measurements from patent US20080058263A1 (published 2008).

Columns and labels:
Assay in all cases: receptor-Fc IP
[1] = target: T1, VEGFR-3-Fc (UniProt P35916 25-328)
T1 construct: domain: first three Ig domains; conditioned supernatant of 293T cells; also called VEGFR-3-Fc fusion protein; not shown: Fc fragment of the pIg vector
T1 sequence (looked up): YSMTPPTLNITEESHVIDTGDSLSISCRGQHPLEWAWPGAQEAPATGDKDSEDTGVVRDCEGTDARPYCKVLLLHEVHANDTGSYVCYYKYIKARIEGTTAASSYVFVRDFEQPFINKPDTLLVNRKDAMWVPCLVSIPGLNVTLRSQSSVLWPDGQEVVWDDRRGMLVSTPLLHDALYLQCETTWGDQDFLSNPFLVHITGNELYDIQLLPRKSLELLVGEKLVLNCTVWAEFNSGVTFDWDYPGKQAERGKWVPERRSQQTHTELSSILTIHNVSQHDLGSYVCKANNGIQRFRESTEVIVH
Method in brief: (§1)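 fusion protein at 400 ng/ml in an IP mix (PBS, 1.5% BSA, 0.06% Tween 20, 3 μg/ml heparin) was combined with sample supernatant at a 1:2 ratio. Bound ligand captured by immunoprecipitation with pentahistidine antibody.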

[2] = target: T2, VEGFR-1-Fc (UniProt P17948 27-338)
T2 construct: domain: first three Ig domains; expressed in Drosophila S2 cells, purified on Protein A sepharose; also called VEGFR-1-Fc fusion protein; not shown: Fc fragment from the Signal-pIgPlus vector
T2 sequence (P17948 27-338): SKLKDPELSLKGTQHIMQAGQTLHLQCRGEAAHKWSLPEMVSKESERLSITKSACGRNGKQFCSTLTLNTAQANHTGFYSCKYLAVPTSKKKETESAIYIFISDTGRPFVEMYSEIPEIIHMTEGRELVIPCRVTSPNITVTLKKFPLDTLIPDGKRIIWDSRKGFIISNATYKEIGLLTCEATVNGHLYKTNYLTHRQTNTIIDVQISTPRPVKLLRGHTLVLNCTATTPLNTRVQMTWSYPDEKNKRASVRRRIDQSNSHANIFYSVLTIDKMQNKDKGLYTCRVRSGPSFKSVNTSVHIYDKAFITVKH
Method in brief: as §1

[3] = target: T3, VEGFR-2-Fc (UniProt P35968 20-322)
T3 construct: domain: first 3 Ig domains; conditioned supernatant of 293T cells; also called VEGFR-2-Fc fusion protein; not shown: Fc fragment of the pIg vector
T3 sequence (P35968 20-322): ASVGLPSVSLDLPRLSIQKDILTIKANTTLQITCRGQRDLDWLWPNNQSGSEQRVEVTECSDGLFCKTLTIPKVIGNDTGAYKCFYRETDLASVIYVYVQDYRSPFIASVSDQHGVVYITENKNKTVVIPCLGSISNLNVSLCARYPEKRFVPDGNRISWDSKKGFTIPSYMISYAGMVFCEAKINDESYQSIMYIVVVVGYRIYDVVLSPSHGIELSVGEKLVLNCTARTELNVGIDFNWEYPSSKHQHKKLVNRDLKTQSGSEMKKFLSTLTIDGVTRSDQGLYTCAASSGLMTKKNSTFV
Method in brief: as §1

Measured: binding result

B1: 53-9 (ligand)
chain: AHYNTEILKSIDNEWRKTQCMPIETLVDIFQEYPDEIEYIFKPPCVSVYRCGGCCNDEGLECVPTEESNITMQIMRITVPLSQGPKPVTISFLQHNKCECRPKKD
no binding: [1] | [2] | [3]

B2: 53-15 (ligand)
chain: AHYNTEILKSIDNEWRKTQCMPIETLVDIFQEYPDEIEYIFKPPCVSVYRCGGCCNSEGLQCVPTEESNITMQIMRITVPLSQGPKPVTISFANHTSCRCMSKLD
no binding: [1] | [2] | [3]

B3: 53-13 (ligand)
chain: AHYNTEILKSIDNEWRKTQCMPIETLVDIFQEYPDEIEYIFKPPCVSVYRCGGCCNDEGLECVPTEESNITMQIMRITVPLSQGPKPVTISFANHTSCRCMSKLD
no binding: [1] | [2] | [3]

B4: 53-11 (ligand)
chain: AHYNTEILKSIDNEWRKTQCMPIETLVDIFQEYPDEIEYIFKPPCVSVYRCGGCCNSEGLQCVPTEESNITMQIMRITVPLSQGPKPVTISFLQHNKCECRPKKD
no binding: [1] | [2] | [3]

B5: 61-10 (ligand)
chain: GQNHHEVVKFMDVYQRSYCHPREVCIDVGKEYPDEIEYIFKPSCVPLMRCGGCCNDEGLECMNTSTSYLSKTLFEITVPLSQGPKPVTISFLQHNKCECRPKKD
no binding: [1] | [2] | [3]

B6: 63-10 (ligand)
chain: GQNHHEVVKFMDVYQRSYCHPREVCIDVGKEYPDEIEYIFKPPCVSVYRCGGCCNDEGLECMNTSTSYLSKTLFEITVPLSQGPKPVTISFLQHNKCECRPKKD
no binding: [1] | [2] | [3]

B7: 61-16 (ligand)
chain: GQNHHEVVKFMDVYQRSYCHPREVCIDVGKEYPDEIEYIFKPSCVPLMRCGGCCNSEGLQCMNTSTSYLSKTLFEITVPLSQGPKPVTISFANHTSCRCMSKLD
no binding: [1] | [2] | [3]

B8: 61-12 (ligand)
chain: GQNHHEVVKFMDVYQRSYCHPREVCIDVGKEYPDEIEYIFKPSCVPLMRCGGCCNSEGLQCMNTSTSYLSKTLFEITVPLSQGPKPVTISFLQHNKCECRPKKD
no binding: [1] | [2] | [3]

B9: 21-15 (ligand)
chain: AHYNTEILKSIDNEWRKTQCMPREVCIDVGKEYPDEIEYIFKPSCVPLMRCGGCCNSEGLQCVPTEESNITMQIMRITVPLSQGPKPVTISFANHTSCRCMSKLD
no binding: [1] | [2] | [3]

B10: 61-2 (ligand)
chain: GQNHHEVVKFMDVYQRSYCHPREVCIDVGKEYPDEIEYIFKPSCVPLMRCGGCCNDEGLECMNTSTSYLSKTLFEIKPHQGQHIGEMSFLQHNKCECRPKKD
no binding: [1] | [2] | [3]

B11: 53-5 (ligand)
chain: AHYNTEILKSIDNEWRKTQCMPIETLVDIFQEYPDEIEYIFKPPCVSVYRCGGCCNDEGLECVPTEESNITMQIMRIKPHQGQHIGEMSFANHTSCRCMSKLD
no binding: [1] | [2] | [3]

B12: 63-5 (ligand)
chain: GQNHHEVVKFMDVYQRSYCHPREVCIDVGKEYPDEIEYIFKPPCVSVYRCGGCCNDEGLECVPTEESNITMQIMRIKPHQGQHIGEMSFANHTSCRCMSKLD
no binding: [1] | [2] | [3]

B13: 62-9 (ligand)
chain: GQNHHEVVKFMDVYQRSYCHPREVCIDVGKEFGVATNTFFKPPCVSVYRCGGCCNDEGLECVPTEESNITMQIMRITVPLSQGPKPVTISFLQHNKCECRPKKD
no binding: [1] | [2] | [3]

B14: 62-4 (ligand)
chain: GQNHHEVVKFMDVYQRSYCHPREVCIDVGKEFGVATNTFFKPPCVSVYRCGGCCNSEGLQCMNTSTSYLSKTLFEIKPHQGQHIGEMSFLQHNKCECRPKKD
no binding: [1] | [2] | [3]

B15: 71-1 (ligand)
chain: GQNHHEVVKSIDNEWRKTQCMPREVCIDVGKEYPDEIEYIFKPSCVPLMRCGGCCNDEGLECVPTEESNITMQIMRIKPHQGQHIGEMSFLQHNKCECRPKKD
no binding: [1] | [2] | [3]

B16: 71-5 (ligand)
chain: GQNHHEVVKSIDNEWRKTQCMPREVCIDVGKEYPDEIEYIFKPSCVPLMRCGGCCNDEGLECVPTEESNITMQIMRIKPHQGQHIGEMSFANHTSCRCMSKLD
no binding: [1] | [2] | [3]

B17: 71-3 (ligand)
chain: GQNHHEVVKSIDNEWRKTQCMPREVCIDVGKEYPDEIEYIFKPSCVPLMRCGGCCNSEGLQCVPTEESNITMQIMRIKPHQGQHIGEMSFLQHNKCECRPKKD
no binding: [1] | [2] | [3]

B18: 62-3 (ligand)
chain: GQNHHEVVKFMDVYQRSYCHPREVCIDVGKEFGVATNTFFKPPCVSVYRCGGCCNSEGLQCVPTEESNITMQIMRIKPHQGQHIGEMSFLQHNKCECRPKKD
no binding: [1] | [2] | [3]

B19: 62-5 (ligand)
chain: GQNHHEVVKFMDVYQRSYCHPREVCIDVGKEFGVATNTFFKPPCVSVYRCGGCCNDEGLECVPTEESNITMQIMRIKPHQGQHIGEMSFANHTSCRCMSKLD
no binding: [1] | [2] | [3]

B20: 62-7 (ligand)
chain: GQNHHEVVKFMDVYQRSYCHPREVCIDVGKEFGVATNTFFKPPCVSVYRCGGCCNSEGLQCVPTEESNITMQIMRIKPHQGQHIGEMSFANHTSCRCMSKLD
no binding: [1] | [2] | [3]

B21: 71-2 (ligand)
chain: GQNHHEVVKSIDNEWRKTQCMPREVCIDVGKEYPDEIEYIFKPSCVPLMRCGGCCNDEGLECMNTSTSYLSKTLFEIKPHQGQHIGEMSFLQHNKCECRPKKD
no binding: [1] | [2] | [3]

B22: 71-4 (ligand)
chain: GQNHHEVVKSIDNEWRKTQCMPREVCIDVGKEYPDEIEYIFKPSCVPLMRCGGCCNSEGLQCMNTSTSYLSKTLFEIKPHQGQHIGEMSFLQHNKCECRPKKD
no binding: [1] | [2] | [3]

B23: 22-1 (ligand)
chain: AHYNTEILKSIDNEWRKTQCMPREVCIDVGKEFGVATNTFFKPPCVSVYRCGGCCNDEGLECVPTEESNITMQIMRIKPHQGQHIGEMSFLQHNKCECRPKKDLVFEQKLISEEDLNSAVDHHHHHH
no binding: [1] | [2] | [3]
